Experimental data as given in article PMC3752671 (Journal of structural biology, 2013).

T1: recombinant porcine amelogenin rP172 (porcine), P45561
T1 chain: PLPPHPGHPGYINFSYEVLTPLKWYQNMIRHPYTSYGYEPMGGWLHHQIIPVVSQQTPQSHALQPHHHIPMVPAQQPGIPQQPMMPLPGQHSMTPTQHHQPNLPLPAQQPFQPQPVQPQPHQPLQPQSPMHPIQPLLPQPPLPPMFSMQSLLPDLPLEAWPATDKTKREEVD

B1: recombinant porcine amelogenin rP172, P45561 18-189 (natural protein)
chain: T1 chain
B2: full-length native porcine amelogenin P173 (natural protein, UniProt P45561 17-189, looked up)
chain: MPLPPHPGHPGYINFSYEVLTPLKWYQNMIRHPYTSYGYEPMGGWLHHQIIPVVSQQTPQSHALQPHHHIPMVPAQQPGIPQQPMMPLPGQHSMTPTQHHQPNLPLPAQQPFQPQPVQPQPHQPLQPQSPMHPIQPLLPQPPLPPMFSMQSLLPDLPLEAWPATDKTKREEVD
modifications: phosphoserine at 16 (S-16); degree of phosphorylation ~85% by mass spectrometry

Experiments:
[1] = target: T1, recombinant porcine amelogenin rP172 …; experiment: cryo-EM structure; details: remark: other sources report otherwise
cryo-EM structure = target: the molecule itself; experiment: cryo-EM structure

Binder	stoichiometry N [1]	stoichiometry N (cryo-EM structure)
B1	12	–
B2	–	12
